# According to publication doi:10.1101/2022.08.03.502687 (bioRxiv, 2022):
# B1: CLC-ec1 'WT' background (C85A/H234C) treated with glutaraldehyde (natural protein)
# chain: MKTDTPSLETPQAARLRRRQLIRQLLERDKTPLAILFMAAVVGTLVGLAAVAFDKGVAWLQNQRMGALVHTADNYPLLLTVAFLASAVLAMFGYFLVRKYAPEAGGSGIPEIEGALEDQRPVRWWRVLPVKFFGGLGTLGGGMVLGREGPTVQIGGNIGRMVLDIFRLKGDEARHTLLATGAAAGLAAAFNAPLAGILFIIEEMRPQFRYTLISIKAVFIGVIMSTIMYRIFNCEVALIDVGKLSDAPLNTLWLYLILGIIFGIFGPIFNKWVLGMQDLLHRVHGGNITKWVLMGGAIGGLCGLLGFVAPATSGGGFNLIPIATAGNFSMGMLVFIFVARVITTLLCFSSGAPGGIFAPMLALGTVLGTAFGMVAVELFPQYHLEAGTFAIAGMGALLAASIRAPLTGIILVLEMTDNYQLILPMIITGLGATLLAQFTGGKPLYSAILARTLAKQEAEQLARSKAASASENT
# modifications: Cy5-maleimide on H234C; cross-linked with glutaraldehyde (residues not stated)
# B2: CLC-ec1 R230C/L249C on the 'WT' background (C85A/H234C), disulfide cross-linked (natural protein)
# chain: MKTDTPSLETPQAARLRRRQLIRQLLERDKTPLAILFMAAVVGTLVGLAAVAFDKGVAWLQNQRMGALVHTADNYPLLLTVAFLASAVLAMFGYFLVRKYAPEAGGSGIPEIEGALEDQRPVRWWRVLPVKFFGGLGTLGGGMVLGREGPTVQIGGNIGRMVLDIFRLKGDEARHTLLATGAAAGLAAAFNAPLAGILFIIEEMRPQFRYTLISIKAVFIGVIMSTIMYCIFNCEVALIDVGKLSDAPCNTLWLYLILGIIFGIFGPIFNKWVLGMQDLLHRVHGGNITKWVLMGGAIGGLCGLLGFVAPATSGGGFNLIPIATAGNFSMGMLVFIFVARVITTLLCFSSGAPGGIFAPMLALGTVLGTAFGMVAVELFPQYHLEAGTFAIAGMGALLAASIRAPLTGIILVLEMTDNYQLILPMIITGLGATLLAQFTGGKPLYSAILARTLAKQEAEQLARSKAASASENT
# Target: the molecule itself
# Test: single-molecule photobleaching subunit capture
row,Protein,binding result
1,B1,binds
2,B2,binds
